Results as given in patent publication US20260193326A1 (published 2026).

B1: A4-075 (VHH)
VHH: VQLQESGGGLVQSGGSLRLSCAASGSMFSLNTMGWYRQAPGKQRELVATITRGGGTNYADSVKGRFTISRDNAKNTVYLQMNSLRPEDTAVYYCHVDELRQSSWTTSNLWGQGTQVTVSS
B2: A4-078 (VHH)
VHH: VQLQESGGGLVQPGGSLRLSCLASGTMFSLNTMGWYRQAPGKQRELVATVTRGGSTNYADFVKGRFTISRDNAKNTVYLQMNSLRPEDTAVYYCHVDEVRDSSWTTSNLWGQGTQVTVSS
B3: A4-084 (VHH)
VHH: VQLQESGGGLVQPGGSLKLSCAASGSRFSLNTMGWYRQAPRKQREFVAAVTRGGNTNYGDFVKGRFTISRDNAKNTVYLQMNSLRPEDTAVYYCHVDELRESSWTTSNLWGQGTQVTVSS
B4: A4-080 (VHH)
VHH: VQLQESGGGLVQPGGSLRLSCAASGSRFSLNTMGWYRQAPGKQRELVATVTRGGSTNYADFVKGRFTISRDNAKNTVYLQMNSLRPEDTAVYYCHVDELRESGWTTSNLWGQGTQVTVSS
B5: A4-095 (VHH)
VHH: VQLQESGGGLVQPGGSLRLSCAASGSSFSANTMGWYRQAPGKQRELVATITRGGNTNYGDSVKGRFTISRDNAKDTVYLQMNSLRPEDTAVYYCHIDEIRESTWTTSNLWGQGTQVTVSS
B6: A4-087 (VHH)
VHH: VQLQESGGGLVQPGGSLRLSCAASGSRFSLNTMGWYRQAPGKQRELVAAVTRGGNTNYGDFVKGRFTISRDNAKNTVYLQMNSLRPEDTAVYYCHVDELRESSWTTSNLWGQGTQVTVSS
B7: A4-086 (VHH)
VHH: VQLQESGGGLVQPGGSLRLSCAASGSRFSLNTMGWYRQAPGKQRELVAAVTRGGNTNYADFVKGRFTISRDNAKNTVYLQMNSLRPEDTAVYYCHVDELRESSWTTSNLWGQGTQVTVSS
B8: A4-082 (VHH)
VHH: VQLQESGGGLVQPGGSLRLSCAASGSRFSLNTMGWYRQAPGKQRELVATVTRGGSTKYADFVKGRFTISRDNAKNTVYLQMNSLRPEDTAVYYCHVDELRESGWTTSNLWGQGTQVTVSS
B9: A4-096 (VHH)
VHH: VQLQESGGGLVQPGGSLRLSCIASGSSFSANTMGWYRQAPGKQRELVATITRGGNTNYGDSVKGRFTISRDNAKNTVYLQMNSLRPEDTAVYYCHIDEIRESTWTTSNLWGQGTQVTVSS
B10: A4-094 (VHH)
VHH: VQLQESGGGLVQPGGSLRLSCVASGSIFVINTMGWYRQAPGKQRELVATVTRDGGTNYADSVKGRFTISRDNAKNTVYLQMNSLRPEDTAVYYCHIDEIRESSWTTSNLWGQGTQVTVSS
B11: A4-091 (VHH)
VHH: VQLQESGGGLVQPGGSLRLSCAASGSRFSINTMGWYRQRAGKQRELVATVTRDGSTTYANSVKGRFTISRDNAKNTVYLQMNSLRPEDTAVYYCHVDELRQSTWTTSNLWGQGTQVTVSS
B12: A4-081 (VHH)
VHH: VQLQESGGGLVQPGGSLRLSCAASGSRFSLNTMGWYRQAPGKQRELVATVTRGGSTNYADSVKGRFTISRDNAKNTVYLQMNSLRPEDTAVYYCHVDELRESGWTTSNLWGQGTQVTVSS
B13: A4-097 (VHH)
VHH: VQLQESGGGLVQPGGSLRLSCIASGSIFSANTMGWYRQAPGKQRELVATITRGGNTNYGDSVKGRFTISRDNAKNTVYLQMNTLRPEDTAVYYCHVDEIRESSWTTSNLWGQGTQVTVSS
B14: A4-085 (VHH)
VHH: VQLQESGGGLVQPGGSLRLSCAASGSRFSLNTMGWYRQAPGKQREFVAAVTRGGNTNYGDFVKGRFTISRDNAKNTVYLQMNSLRPEDTAVYYCHVDELRESSWTTSNLWGQGTQVTVSS
B15: A4-079 (VHH)
VHH: VQLQESGGGLVQPGGSLRLSCAASGTRFSINTMGWYRQAPGKQRELVANVTPAGSTNYADSVKGRFTISRDNAKNTVYLQMNSLRPEDTAVYYCHVDELRDSSWTTSNLWGQGTQVTVSS

Experiments:
Experiment in all cases: SPR, AAV amine-coupled to CM5 chip;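 further: nanobodies flowed as analyte at seven concentrations spanning 1–100 nM over immobilized AAV (500–800 RU), kinetic constants derived by fitting the binding curves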
[1] = target: T1, AAV8 (adeno-associated virus 8)
T1 construct: also called adeno-associated virus serotype 8
Protocol: (§1) AAV was amine-coupled to a CM5 sensor chip at a density of 500-800 response units (RU). Nanobodies were injected at seven concentrations (1-100 nM) with a flow rate of 45 μL/min, and chip regeneration was performed using glycine-HCl (pH 1.5). Binding curves at different nanobody concentrations were used to calculate kinetic parameters (Kₐ, Kd, KD) (Table 2 and FIG. 2).

[2] = target: T2, AAV9 (adeno-associated virus 9)
T2 construct: also called adeno-associated virus serotype 9
Protocol: as §1

[3] = target: T3, AAV5 (adeno-associated virus 5)
T3 construct: also called adeno-associated virus serotype 5
Protocol: as §1

Row | Binder | Kd [1] [nM] | koff [1] [s⁻¹] | kon [1] [M⁻¹ s⁻¹] | Kd [2] [nM] | koff [2] [s⁻¹] | kon [2] [M⁻¹ s⁻¹] | Kd [3] [nM] | koff [3] [s⁻¹] | kon [3] [M⁻¹ s⁻¹]
1 | B1 | 9.57 | 0.00067 | 70000 | 9.74 | 0.00099 | 102000 | 28.9 | 0.00086 | 29800
2 | B2 | 61.6 | 0.006 | 97500 | 215 | 0.00618 | 28800 | 52.7 | 0.00932 | 177000
3 | B3 | 12.8 | 0.00177 | 138000 | 2.28 | 0.0003 | 132000 | 0.364 | 6e-05 | 165000
4 | B4 | 191 | 0.00138 | 7220 | 5.08 | 0.00074 | 146000 | 20.4 | 0.00194 | 95200
5 | B5 | 2.25 | 0.00026 | 116000 | 6.34 | 0.00114 | 180000 | 14.5 | 0.00133 | 91800
6 | B6 | 1.05 | 0.00012 | 115000 | 4.13 | 0.00023 | 55700 | 1.69 | 0.0003 | 177000
7 | B7 | 0.76 | 6e-05 | 78900 | 1.45 | 0.00026 | 179000 | 23.1 | 0.00107 | 46400
8 | B8 | 46.7 | 0.00017 | 3640 | 122 | 0.0004 | 3290 | 92.9 | 0.0005 | 5380
9 | B9 | 15.4 | 0.00169 | 110000 | 5.14 | 0.00064 | 125000 | 48.9 | 0.00123 | 25100
10 | B10 | 86.5 | 0.00058 | 6710 | 44.8 | 0.00043 | 9600 | 171 | 0.00166 | 9680
11 | B11 | 99.4 | 0.00091 | 9160 | 34.5 | 0.0002 | 5790 | 4.49 | 3e-05 | 6690
12 | B12 | 6.05 | 0.00105 | 174000 | 13.7 | 0.00131 | 95900 | 12.5 | 0.00146 | 117000
13 | B13 | 12.4 | 0.00192 | 155000 | 62.3 | 0.00816 | 131000 | 578 | 0.00544 | 9410
14 | B14 | 108 | 0.00041 | 3790 | 223 | 0.0005 | 2240 | 192 | 0.00191 | 9940
15 | B15 | 1620 | 0.0019 | 1180 | 382 | 0.00051 | 1340 | 211 | 0.00083 | 3930
